{"source": "paper PMC9562052", "key": {"[1]": {"target": "human lactate dehydrogenase (hLDH) (human, UniProt P00338 1-332)", "experiment": "ELASA sandwich"}, "[2]": {"target": "Plasmodium falciparum lactate dehydrogenase (PfLDH) (Plasmodium falciparum, UniProt Q76NM3 1-316)", "experiment": "ELASA sandwich"}}, "data": [{"binder": "CTGGGCGGTAGAACCATAGTGACCCAGCCGTCTAC (ssDNA)", "note": "[2008s aptamer, 3'-biotin]", "values": [{"measurement": "binding result", "setting": "[1]", "result": "no binding"}, {"measurement": "binding result", "setting": "[2]", "result": "binds"}]}]}
